Reference: patent publication JP2012050437A

Target: soluble Aβ1-42 (125I-labelled) (human) (UniProt P05067)
Assay: capture radioimmunoassay, 50,000 CPM 125I-Aβ1-42, antibody at 10 µg/ml

percent of radioactive counts bound at 10 µg/ml: 2%
Substance: murine monoclonal antibody 10D5 (isotype IgG1)
